Assay [1] concerns the target taxol-stabilized microtubules made from PC tubulin. In words: microtubule pelleting assay, gel densitometry, fitted.
Assay [2] shares this target. Put plainly: microtubule pelleting assay after brain extract phosphorylation.
The target is the same in assay [3]. Put plainly: microtubule pelleting assay after 90 min phosphorylation.
The target is the same in assay [4]. In words: microtubule pelleting assay, gel densitometry, fitted; 30 µM polymerized tubulin.
For assay [5] the target is unchanged. Put plainly: microtubule pelleting assay after 35 kDal kinase.
The target is the same in assay [6]. In words: microtubule pelleting assay after 35 kDal kinase, fitted.
Assay [7] shares this target. In words: co-sedimentation of tau with microtubules in taxol, fitted binding curve (control curve).
For assay [8] the target is unchanged. In words: co-sedimentation of tau with taxol-stabilized microtubules (30 µM polymerized tubulin), SDS gel densitometry, fitted binding curve.
Assay [9] has the same target. Put plainly: microtubule pelleting assay, microtubules from 10 µM tubulin with 20 µM taxol.
Assay [10] has the same target. Put plainly: co-sedimentation of tau with microtubules made from 10 µM tubulin in 20 µM taxol, fitted binding curve.
The target is the same in assay [11]. In words: co-sedimentation of tau with taxol-stabilized microtubules, SDS gel densitometry, fitted binding curve.
The target is the same in assay [12]. In words: microtubule pelleting assay after MAP kinase.

Turning to “AP18 phosphorylated with the brain extract activity (from UniProt P10636 1-352)”, in assay [1], the Kd (commonly a measure of binding affinity in units of concentration) is 6.1 µM and the stoichiometry n (tau/tubulin dimer) (tau/tubulin dimer) worked out at 0.48. Besides, the difference in stoichiometry upon phosphorylation (Dn) (tau/tubulin dimer) in assay [2] amounted to 0.01.

In assay [3], “S404-A mutant of htau34 after 90 min of phosphorylation by the brain extract kinase activity (from UniProt P10636 1-412)” came in with a fold decrease of stoichiometry against the unphosphorylated mutant of 2 fold.

In the case of “htau23 mutant Ser202-Ala phosphorylated with brain extract (from UniProt P10636 1-352)”, in [4], the Kd turned out to be 9.4 µM and the stoichiometry n (tau/tubulin dimer) (tau/tubulin dimer) was 0.31.

“htau23 mutant Ser262-Ala phosphorylated with brain extract (from UniProt P10636 1-352)” came in with a difference in stoichiometry upon phosphorylation (Dn) (tau/tubulin dimer) in assay [2] of 0.04.

As for “htau23 phosphorylated by the 35 kDal kinase (from UniProt P10636 2-352)”, the reduction in stoichiometry upon phosphorylation (Dn) (tau/tubulin dimer) in assay [5] amounted to 0.28. Further, in assay [6], the Kd was found to be 8.8 µM and the stoichiometry n (tau/tubulin dimer) (tau/tubulin dimer) turned out to be 0.21.

In the case of “htau23 phosphorylated by the brain extract kinase activity (stage 2-3, up to 24 h) (from UniProt P10636 2-352)”, the Kd in assay [7], in assay [8] and in [4] was 4.9 µM each time. Also, the n in [7] and in [8] was 0.16 throughout. The substance also gave a difference in stoichiometry upon phosphorylation (Dn) (tau/tubulin dimer) in [2] of 0.33. Moreover, in assay [4], the stoichiometry n (tau/tubulin dimer) (tau/tubulin dimer) came to 0.16.

In [9], “htau23 phosphorylated with GSK3 (from UniProt P10636 2-352)” gave a stoichiometry (tau per tubulin dimer) (per tubulin dimer) of 0.6. Further, in assay [10], the Kd was determined as 2.4 µM and the n came to 0.6.

In assay [11], “htau23/A404 (Ser404 replaced by Ala), unphosphorylated (from UniProt P10636 1-758)” showed a Kd of 4.3 µM and a n of 0.54.

In assay [11], “htau23/A404 phosphorylated by the brain extract kinase activity (from UniProt P10636 1-352)” displayed a Kd of 9.3 µM and a n of 0.32. Moreover, in assay [2], the Dn as percent of the unmutated control amounted to 52% and the difference in stoichiometry upon phosphorylation (Dn) (tau/tubulin dimer) was determined as 0.17.

As to “htau34 phosphorylated by the brain extract kinase activity (stage 2-3, up to 24 h) (from UniProt P10636 2-412)”, in assay [8], the Kd was determined as 10.4 µM and the n was found to be 0.16.

Regarding “htau34 phosphorylated by the brain extract kinase activity for 90 min (stage 1) (from UniProt P10636 2-412)”, in assay [3], the fold decrease of stoichiometry against unphosphorylated htau34 amounted to 3 fold.

In assay [11], “htau40 phosphorylated by the brain extract kinase activity (from UniProt P10636 2-758)” gave a Kd of 9.6 µM and a n of 0.15. This substance also showed a difference in stoichiometry upon phosphorylation (Dn) (tau/tubulin dimer) in assay [2] of 0.31.

In assay [11], “htau40 phosphorylated with MAP kinase (from UniProt P10636 2-758)” gave a Kd of 1.9 µM and a n of 0.37. Also, the difference in stoichiometry upon phosphorylation (Dn) (tau/tubulin dimer) in [12] was 0.09.

In [1], “human tau isoform htau34, bacterially expressed, unphosphorylated (from UniProt P10636 2-412)” gave a Kd of 1 to 2 µM. In assay [8], the Kd was found to be 1.4 µM and the n came out at 0.43.

With “human tau isoform htau40, bacterially expressed, unphosphorylated (from UniProt P10636 2-758)”, in assay [11], the Kd turned out to be 1.1 µM and the n was 0.46.

The values above are taken from US7408027.
